Values quoted from earlier work as cited in paper PMC8199771.
pKd: −log10 of the molar value.

Key:
[1] = target: muscle nAChR alpha1-gamma and alpha1-delta interfaces (Mus musculus) (UniProt P04756)
[2] = target: muscle nAChR alpha1-epsilon interface (Mus musculus) (UniProt P04756)
[3] = target: muscle nAChR alpha-epsilon interface (Mus musculus) (UniProt P04756)
[4] = target: muscle nAChR alpha-delta interface (Mus musculus) (UniProt P04756)
[5] = target: muscle nAChR (Homo sapiens) (UniProt P02708)

Row | Substance | pKd [1] | pKd [2] | pKd [3] | pKd [4] | pKd [5]
1 | NmmI (from UniProt P01431) | 10.00 | 7.00 |  |  | 
2 | Waglerin-1 (from UniProt P24335) |  |  | 8.01 | 4.69 | 6.16
